Data as given in patent US20240050583A1 (HARBOUR BIOMED SHANGHAI, published 2024).

Tests used:
human BCMA [1] = biological target: T1, human BCMA (human, UniProt Q02223 1-184); experiment: flow cytometry (FACS) on HEK293T-hBCMA and NCI-H929 cells, legend of FIG. 32
T1 construct: whole, on cells; also called hBCMA; tumor necrosis factor receptor superfamily member 17
T1 sequence (looked up): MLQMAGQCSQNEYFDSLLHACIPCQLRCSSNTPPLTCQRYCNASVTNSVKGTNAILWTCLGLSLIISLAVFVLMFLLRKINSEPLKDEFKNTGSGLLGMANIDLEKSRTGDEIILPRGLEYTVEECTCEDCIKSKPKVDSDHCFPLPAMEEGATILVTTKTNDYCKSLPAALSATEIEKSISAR

human BCMA [2] = biological target: T1, human BCMA; experiment: flow cytometry (FACS) on NCI-H929 cells
human BCMA [3] = biological target: T1, human BCMA; experiment: flow cytometry (FACS) on HEK293T-hBCMA cells
human CTLA4 = biological target: T2, human CTLA4 (human, UniProt P16410 36-223); experiment: flow cytometry (FACS) on HEK293/hCTLA4 cells
T2 construct: whole, on cells; HEK293T cell strain HEK293/hCTLA4 highly expressing human CTLA4 (constructed by Harbour BioMed); also called hCTLA4; CD152
T2 sequence (looked up): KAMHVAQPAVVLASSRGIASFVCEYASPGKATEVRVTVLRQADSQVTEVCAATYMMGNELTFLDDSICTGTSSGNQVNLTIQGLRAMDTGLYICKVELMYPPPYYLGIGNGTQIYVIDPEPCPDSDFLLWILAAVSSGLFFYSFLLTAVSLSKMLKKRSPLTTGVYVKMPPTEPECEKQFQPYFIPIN
Protocol: The binding ability of the antibody molecules to an HEK293T cell strain HEK293/hCTLA4 (constructed by Harbour BioMed) highly expressing human CTLA4 and other cells was determined by flow cytometry FACS. Specifically, the HEK293/hCTLA4 cells were digested and resuspended in a DMEM medium, with the cell density adjusted to 1×10⁶ cells/mL. HEK293 cells not expressing CTLA4 were used as a negative control. Thereafter, the cells were seeded in a 96-well V-bottom plate (Corning, #3894) at 100 μL/well and centrifuged at 4° C. for 5 min, and the supernatant was discarded. Then, the serially diluted antibody molecules were added to the 96-well plate at 100 μL/well, and the mixtures were well mixed. […]
Then, the cells in each well were rinsed twice with 100 μL of pre-cooled FACS buffer (PBS buffer containing 0.5% BSA) and centrifuged at 500 g at 4° C. for 5 min, and then the supernatant was discarded. […] Fluorescence signal values were read using a BD FACS CANTOII flow cytometer, and the data were processed and analyzed using FlowJo v10 (FlowJo, LLC) software. The data were processed and analyzed by plotting using GraphPad Prism 8 software, and binding curves of the antibodies to target cells, EC₅₀ values and other parameters were obtained through four-parameter nonlinear fitting.

human 5T4 = biological target: T3, human 5T4 (human, UniProt Q13641 32-420); experiment: flow cytometry (FACS) on HCC1954 cells highly expressing human 5T4
T3 construct: whole, on cells; also called trophoblast glycoprotein; TPBG
T3 sequence (looked up): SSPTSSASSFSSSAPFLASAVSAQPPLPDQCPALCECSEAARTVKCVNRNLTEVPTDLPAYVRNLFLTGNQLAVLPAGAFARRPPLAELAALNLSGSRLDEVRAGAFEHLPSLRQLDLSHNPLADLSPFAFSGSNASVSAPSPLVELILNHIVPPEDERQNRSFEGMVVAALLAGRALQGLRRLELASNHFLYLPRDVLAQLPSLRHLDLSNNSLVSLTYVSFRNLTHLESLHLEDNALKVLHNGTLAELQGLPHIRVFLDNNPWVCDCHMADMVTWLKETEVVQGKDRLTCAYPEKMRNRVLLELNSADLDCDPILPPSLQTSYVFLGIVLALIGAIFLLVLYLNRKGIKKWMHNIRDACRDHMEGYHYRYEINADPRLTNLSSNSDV
Protocol: The binding ability of the antibody molecules to a human breast cancer cell strain HCC1954 (ATCC, CRL-2338) highly expressing human 5T4 was determined by flow cytometry FACS. Specifically, the cell density was adjusted to 1×10⁶ cells/mL. The cells were seeded in a 96-well V-bottom plate (Corning, #3894) at 100 μL/well, followed by the addition of test antibodies diluted in a 3-fold gradient at a concentration that was 2 times the final concentration, each at 100 μL/well. The cells were incubated at 4° C. for 1 h away from light. Thereafter, the cells in each well were rinsed twice with 100 μL of pre-cooled PBS, and centrifuged at 500 g at 4° C. for 5 min, and then the supernatant was discarded. Thereafter, a fluorescent secondary antibody (Alexa Fluor 488-conjugated AffiniPure Goat Anti-Human IgG, Fcγ Fragment Specific, Jackson ImmunoResearch Inc., #109-545-098, diluted in a 1:500 ratio) was added at 100 μL/well, and the plate was incubated at 4° C. for 30 min away from light. The cells in each well were then rinsed twice with 100 μL of pre-cooled PBS and centrifuged at 500 g at 4° C. for 5 min, and then the supernatant was discarded. Finally, the cells in each well were resuspended in 200 μL of pre-cooled PBS. Fluorescence signal values were read using a BD FACS CANTOII flow cytometer, and the data were processed and analyzed using FlowJo v10 (FlowJo, LLC) software.

B1: PR004433-ADC (antibody, human IgG1, V domains shown)
VH: EVQLVETGGGLIQPGGSLRLSCAASGFTVSDSYMTWVRQAPGKGLEWVSVIFSGGRTYYSDSVKGRFTISRDNAKNTLYLQMNSLRAEDTALYYCARRNYDDTRGTDVFDIWGQGTMVTVSS
modifications: mc-vc-PAB-MMAE coupled to Cys-220 (Eu numbering; 98% of the site coupled)
notes: Coupling product of HCAb PR004433 with mc-vc-PAB-MMAE, main component DAR=2; also called coupling product PR004433-ADC
Human BCMA [1]
  binding result: binds

B2: PR006468-ADC (antibody, V domains shown)
VH: EVQLVETGGGLIQPGGSLRLSCAASGFTVSDSYMTWVRQAPGKGLEWVSVIFSGGRTYYSDSVKGRFTISRDNAKNTLYLQMNSLRAEDTALYYCARRNYDDTRGTDVFDIWGQGTMVTVSS
modifications: mc-vc-PAB-MMAE coupled to Cys1 (first cysteine) of the mouse IgG2c hinge region (90.8% of the site coupled)
notes: Purified coupling product of PR006468 with mc-vc-PAB-MMAE, DAR=2 component 95.5%; also called coupling product PR006468-ADC
Human BCMA [2]
  binding result: binds

B3: HCAb PR006468 (antibody, V domains shown)
VH: EVQLVETGGGLIQPGGSLRLSCAASGFTVSDSYMTWVRQAPGKGLEWVSVIFSGGRTYYSDSVKGRFTISRDNAKNTLYLQMNSLRAEDTALYYCARRNYDDTRGTDVFDIWGQGTMVTVSS
Human BCMA [2]
  binding result: binds

B4: PR004433-PROTAC (antibody, human IgG1, V domains shown)
VH: EVQLVETGGGLIQPGGSLRLSCAASGFTVSDSYMTWVRQAPGKGLEWVSVIFSGGRTYYSDSVKGRFTISRDNAKNTLYLQMNSLRAEDTALYYCARRNYDDTRGTDVFDIWGQGTMVTVSS
modifications: BRD4 protein degrading agent (PROTAC GNE-987 with a disulfide-containing linker) coupled by a disulfide bond to cysteine, Cys-220 site (Eu numbering) as the filing aims
notes: Coupling product without HIC purification; DAR=2 component 66.4%, naked antibody 28.4%; also called coupling product PR004433-PROTAC
Human BCMA [2]
  binding result: binds

B5: HCAb PR001046 (antibody, human IgG1, V domains shown)
VH: EVQLVETGGGLIQPGGSLRLSCAASGFTVSDNYMTWVRQAPGKGLEWVSVIFSGGNTYYADSVKGRFTISRDNAKNTLYLQMNSLRAEDTALYYCARRNYDDTRGTDVFDIWGQGTMVTVSS
notes: Fully human heavy-chain-only antibody with human IgG1 hinge and Fc; also called 1005P63B7; anti-BCMA HCAb antibody PR001046
Human BCMA [3]
  binding result: binds

B6: PR001046-ADC (antibody, human IgG1, V domains shown)
VH: EVQLVETGGGLIQPGGSLRLSCAASGFTVSDNYMTWVRQAPGKGLEWVSVIFSGGNTYYADSVKGRFTISRDNAKNTLYLQMNSLRAEDTALYYCARRNYDDTRGTDVFDIWGQGTMVTVSS
modifications: mc-vc-PAB-MMAE coupled mainly to the cysteine at site 127 (Cys-220 according to Eu numbering)
notes: Purified coupling product of HCAb PR001046 with mc-vc-PAB-MMAE, main component DAR=2; also called coupling product PR001046-ADC
Human BCMA [3]
  binding result: binds

B7: PR005744-ADC (bispecific antibody, human IgG1, kappa)
chain 1: QVQLVESGGGVVQPGRSLRLSCAATGFTFSSYGMYWVRQAPGKGLEWVAAIWNDGSNNYYADSVKGRFTISRDDSKNTLNLQMNSLRAEDTAMYYCARDRLPMASLRYFDWLGVMDAWGQGTSVTVSSASTKGPSVFPLAPSSKSTSGGTAALGCLVKDYFPEPVTVSWNSGALTSGVHTFPAVLQSSGLYSLSSVVTVPSSSLGTQTYICNVNHKPSNTKVDKKVEPKSC
chain 2: not shown
modifications: mc-vc-PAB-MMAE coupled to Cys-220 (Eu numbering) of the linker peptide (99.07% of the site coupled)
notes: Coupling product of PR005744 with mc-vc-PAB-MMAE; also called coupling product PR005744-ADC
Human BCMA [2]
  binding result: binds

B8: HCAb PR000020 (antibody, human IgG1, V domains shown)
VH: EVQLVETGGGLIQPGGSLRLSCAASGLNVSRHYLSWVRQAPGKGLEWVAVIYSGGGIEYVDSVKGRFTISRDNANNTLYLQMRSLRTEDSAVYYCARAIPRPHGSDIWGQGTMVTVSS
notes: Fully human heavy-chain-only antibody (VH, human IgG1 hinge, CH2, CH3), dimer of two heavy chains, no light chain; also called CL24; anti-CTLA4 HCAb antibody PR000020
Human CTLA4
  binding result: binds

B9: PR000020-ADC (antibody, human IgG1, V domains shown)
VH: EVQLVETGGGLIQPGGSLRLSCAASGLNVSRHYLSWVRQAPGKGLEWVAVIYSGGGIEYVDSVKGRFTISRDNANNTLYLQMRSLRTEDSAVYYCARAIPRPHGSDIWGQGTMVTVSS
modifications: mc-vc-PAB-MMAE coupled to C124 (Cys-220 according to Eu numbering)
notes: Purified coupling product of HCAb PR000020 with mc-vc-PAB-MMAE, main component DAR=2; also called coupling product PR000020-ADC
Human CTLA4
  binding result: binds

B10: HCAb PR004432 (antibody, human IgG1, V domains shown)
VH: EVQLQQSGPGLVKPSQTLSLTCAISGDSVSNNYAAWNWIRQSPSRGLEWLGRTYYRSKWYNDYAVSVKSRITINPDTSKNQFSLQLNRVTPEDTAVYYCARDNYYGSGSPPVDALDIWGQGTMVTVSS
notes: Fully human heavy-chain-only antibody with human IgG1 hinge and Fc; also called 1041P014H2; anti-5T4 HCAb antibody PR004432
Human 5T4
  binding result: binds

B11: PR004432-ADC (antibody, human IgG1, V domains shown)
VH: EVQLQQSGPGLVKPSQTLSLTCAISGDSVSNNYAAWNWIRQSPSRGLEWLGRTYYRSKWYNDYAVSVKSRITINPDTSKNQFSLQLNRVTPEDTAVYYCARDNYYGSGSPPVDALDIWGQGTMVTVSS
modifications: mc-vc-PAB-MMAE coupled to Cys-220 (Eu numbering; 97.12% of the site coupled)
notes: Purified coupling product of HCAb PR004432 with mc-vc-PAB-MMAE, main component DAR=2; also called coupling product PR004432-ADC
Human 5T4
  binding result: binds
